Experimental findings from the DeepSol protein solubility set are described below.

A short description of this series: soluble on expression in E. coli; label from the status in PepcDB or PDB records.
As to “MTDKSKTEKLISSDDKQSVIDGILDMVFNSKAYEVPWISEKLMELSKNKDLDIAGLSLTCFGHLARLHSNIGDYDKVIPLLHSKQDDPELQGRAEDALEDISLFLSENH”, the “soluble on expression in E. coli” value was “not soluble”. With “EVVEDVLTNAIENGSSIQDIELTLKDMPQFDRERARTTAITEVLAASSAAQHESYAQSPAVKKKKWRHSGGKKNNPRENHIDLDGTVIGVDEEFQIPGSSETCMFPRDPKLSTRERVNCHCVLS”, the “soluble on expression in E. coli” value is “not soluble”. On to “MEVFVFTPKGDLYKMPKGATVLDFAFAIHSKLGSKCIGAKVNGKNAQLKQTLNSGDQVEVMTSNTQTPKLEHHHHHH”, for which the “soluble on expression in E. coli” value is on record as “not soluble”. For “MGSNELFTRSVYMQSSVYSNNSKSSTSSSSSNSIPTQSAPAMNAASSPSKEPAKQEKEDDKKEVEEKKEIEKSVEAKVEGKVKAKVESTQNTDNSQELKAPEEKPKKKKKKKSNLIVSASVEKLSIVPEKEDFSILEKKLREFNFYHGFLPREDLHTTLHNPGDFLLRVSEVVEGEHKVNREVILSLIPVSTVSKDEEDRKKVRNVVIKRVTNLFFCEITRTFESISDLVTYYTKNPGGCASGTFQLKHPILQQSWEFMHSDVTVGKVLGEGAFGKVCSGTLKLKDGTNVDVAIKMTKVSAFLSKMKIKEMMNEARFIRNFNHKNVVRLYGVAHHEQPLYILLELVKGGSLQDHMKKEKGAVSIVEKIKFCSGAGRGIEYLHQNNCIHRDIAARNCLLHEKEVKITDFGLSRTGPVYKMKTACKLPVKWLAPETLSTLSFSFATDTYSWGVTCYEVFADGVEPFFGIQNSVVKTDILANKFLQMPPTTPESIKKYMEASIFVEGSRRATMTSAIAEFEKIKSALERPPSDMLSVGAGAKKVMKLLKRNKQEKYSKGD”, the “soluble on expression in E. coli” value is listed as “not soluble”. With “MKITDLRCAVIGKHPIVRIVTDEGLHGLGEVEFTKTYLKPFVLHFREALIGEDPTDVERVMLKIRQRGSFKPYGAAVSAIEHALWDIAGKAAGVPVYKLLGGKVRDKVRVYNGSIRRKRAGDRPEDYAADVKWMMEQPQNFFMVKQGISFHSNMKDSIEGFHYGVTQKKAGYHGAMDQGVISERGFNHMLDCVIAMKEVLGDKVSLALDCGPGWMLPDAIKFARAVEKYNLMWLEDMLTGDYVPWVNPQAYRELTTSTSTPIHTGEQIYLRHNFKELIETQAVRVIGPDPADIGGIAELKWVAEHAYMHSILMAPHGTANGLLGLGALINVCATLPANYVAFEYPSASDPWWEDLVIGLPAQIVRDSMVDLLEAPGLGLDIDAEAARKYLGEEDAGFFD”, the “soluble on expression in E. coli” value was “not soluble”. The result for “MSEEKPLKVSYSKQFVRDLTDLAKRSPNVLIGSKYITAIHCLLNRLPLPENYQDHALVGEWKGYRDCHIQGDLVLIYQYVIQDEFDELKFSRLNIHSQTALK” reads “not soluble”; that for “MGAMIVKEVYETAEKIKSMEIRGAGRIARAAAQALMIQAEKSKAKEPEELWNELKVASKILYNTRPTAVSLPNALRYVMHRVKAAYLGGADLETLRFTAINSAKEFIYNSEKAIERIGEIGAKRIEDGDIIMTHCHSKAAISVMKKAFEQGKNIKVIVTETRPKWQGKITAKELASYGIPVIYIVDSAARHYMKMTDKVVMGADSITANGAVINKIGTSLIALTAKEHRVWVMIAAETYKFHPATMLGQLVEIEMRDPTEVIPEEELRTWPKNIEVWNPAFDVTPPEYIDVIITERGIIPPYAAIDILKEEFGWALKYKEPWED”, “soluble”. For “MGSDKIHHHHHHMVWRDLLEVIYKLDPKPGLGLEIAKHVQPKHLGIIAYLALSCDNLGEALIRYHDFHRLIYDGSPLVVELQGRYGSIRWEATELHPTQLTDEIAIALVIQFLRLFMSHEDVQLHEVRFLNAAPKNIRVYEQYFQCPVRFSQPRTELLIPITEIHKPLSSADHTLQQLLVQQAQALLEQLPNSTQLDQRLQHSILTGLQKNQYQIEYIAAQLGLSVRQLQRHLQQQSTTFQERVQQVRFMLATEYLKDPHLSLQEIALLLCYSEQSAFQRAFKHWTKQTPQQWRDQFLDKE”, the “soluble on expression in E. coli” value is “not soluble”. Turning to “MILAIDLGTSGAKAAIIDSAGAVHEQTFVPYSTTKLPNGGVEQDPMQWVSAARQAVTRLPRSYSVVSFTGQMQDLICLDRAGRPLGQALLYNDARAAAEAARLNTVVPEWKDITGNRQTATSTAAMWLRLMEQSD”, the “soluble on expression in E. coli” value is reported as “not soluble”.
